Numbering of substitutions follows the chain as printed. Numbers in names are those of the source. Each block holds one binder with its values, some of them ahead of it.
Experiments:
[1] = molecular target: T1, endogenous human PAPPA natively secreted by human cells (A549; 9-7) (human, UniProt Q13219 82-1627); assay: cell-based or functional assay
[2] = molecular target: T2, recombinant human PAPPA (pregnancy associated plasma protein-A) (human, UniProt Q13219 82-1627); assay: cell-based or functional assay
T2 sequence (Q13219 82-1627 limits assumed): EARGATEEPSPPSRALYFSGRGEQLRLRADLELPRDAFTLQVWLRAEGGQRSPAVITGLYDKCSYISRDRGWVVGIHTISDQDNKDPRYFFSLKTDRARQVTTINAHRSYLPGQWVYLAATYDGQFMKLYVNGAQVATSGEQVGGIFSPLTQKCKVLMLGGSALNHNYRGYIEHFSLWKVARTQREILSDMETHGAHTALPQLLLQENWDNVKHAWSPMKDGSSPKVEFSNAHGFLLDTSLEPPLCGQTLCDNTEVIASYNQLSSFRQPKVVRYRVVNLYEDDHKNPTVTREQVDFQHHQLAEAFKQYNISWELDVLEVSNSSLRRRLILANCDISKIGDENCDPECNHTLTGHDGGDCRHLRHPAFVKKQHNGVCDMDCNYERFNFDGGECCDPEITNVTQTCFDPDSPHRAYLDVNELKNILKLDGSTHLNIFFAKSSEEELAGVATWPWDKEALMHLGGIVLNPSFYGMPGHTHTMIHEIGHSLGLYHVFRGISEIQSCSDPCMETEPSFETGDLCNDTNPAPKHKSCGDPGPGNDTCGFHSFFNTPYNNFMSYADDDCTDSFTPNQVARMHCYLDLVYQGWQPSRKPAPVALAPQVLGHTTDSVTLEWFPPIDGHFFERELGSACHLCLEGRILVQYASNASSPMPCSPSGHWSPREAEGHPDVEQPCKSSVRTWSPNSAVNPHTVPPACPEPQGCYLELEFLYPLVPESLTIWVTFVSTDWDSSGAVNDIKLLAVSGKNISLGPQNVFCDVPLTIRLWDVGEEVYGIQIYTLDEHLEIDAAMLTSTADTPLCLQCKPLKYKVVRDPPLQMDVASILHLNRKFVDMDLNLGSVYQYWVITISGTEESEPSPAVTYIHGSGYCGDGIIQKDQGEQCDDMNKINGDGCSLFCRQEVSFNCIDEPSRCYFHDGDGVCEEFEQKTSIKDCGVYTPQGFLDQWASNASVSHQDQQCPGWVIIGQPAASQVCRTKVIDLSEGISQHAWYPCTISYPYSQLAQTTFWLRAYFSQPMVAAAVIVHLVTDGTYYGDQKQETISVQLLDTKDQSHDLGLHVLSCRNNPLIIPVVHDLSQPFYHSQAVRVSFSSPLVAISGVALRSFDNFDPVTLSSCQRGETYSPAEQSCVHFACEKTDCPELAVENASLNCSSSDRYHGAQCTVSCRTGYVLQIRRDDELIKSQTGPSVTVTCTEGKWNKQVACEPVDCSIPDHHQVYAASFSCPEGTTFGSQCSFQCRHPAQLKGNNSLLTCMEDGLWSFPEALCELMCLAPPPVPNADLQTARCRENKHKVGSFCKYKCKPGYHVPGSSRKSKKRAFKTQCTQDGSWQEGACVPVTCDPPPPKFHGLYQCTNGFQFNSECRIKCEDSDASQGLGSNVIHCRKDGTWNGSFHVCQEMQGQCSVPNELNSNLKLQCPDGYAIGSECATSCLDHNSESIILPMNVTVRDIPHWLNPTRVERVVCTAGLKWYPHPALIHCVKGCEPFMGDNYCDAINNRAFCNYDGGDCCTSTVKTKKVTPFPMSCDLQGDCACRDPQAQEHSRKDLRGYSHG

[3] = molecular target: T3, recombinant cynomolgus monkey PAPPA (cynomolgus monkey, UniProt A0A2K5WE98 87-1619); assay: cell-based or functional assay
T3 sequence (A0A2K5WE98 entry or part of it): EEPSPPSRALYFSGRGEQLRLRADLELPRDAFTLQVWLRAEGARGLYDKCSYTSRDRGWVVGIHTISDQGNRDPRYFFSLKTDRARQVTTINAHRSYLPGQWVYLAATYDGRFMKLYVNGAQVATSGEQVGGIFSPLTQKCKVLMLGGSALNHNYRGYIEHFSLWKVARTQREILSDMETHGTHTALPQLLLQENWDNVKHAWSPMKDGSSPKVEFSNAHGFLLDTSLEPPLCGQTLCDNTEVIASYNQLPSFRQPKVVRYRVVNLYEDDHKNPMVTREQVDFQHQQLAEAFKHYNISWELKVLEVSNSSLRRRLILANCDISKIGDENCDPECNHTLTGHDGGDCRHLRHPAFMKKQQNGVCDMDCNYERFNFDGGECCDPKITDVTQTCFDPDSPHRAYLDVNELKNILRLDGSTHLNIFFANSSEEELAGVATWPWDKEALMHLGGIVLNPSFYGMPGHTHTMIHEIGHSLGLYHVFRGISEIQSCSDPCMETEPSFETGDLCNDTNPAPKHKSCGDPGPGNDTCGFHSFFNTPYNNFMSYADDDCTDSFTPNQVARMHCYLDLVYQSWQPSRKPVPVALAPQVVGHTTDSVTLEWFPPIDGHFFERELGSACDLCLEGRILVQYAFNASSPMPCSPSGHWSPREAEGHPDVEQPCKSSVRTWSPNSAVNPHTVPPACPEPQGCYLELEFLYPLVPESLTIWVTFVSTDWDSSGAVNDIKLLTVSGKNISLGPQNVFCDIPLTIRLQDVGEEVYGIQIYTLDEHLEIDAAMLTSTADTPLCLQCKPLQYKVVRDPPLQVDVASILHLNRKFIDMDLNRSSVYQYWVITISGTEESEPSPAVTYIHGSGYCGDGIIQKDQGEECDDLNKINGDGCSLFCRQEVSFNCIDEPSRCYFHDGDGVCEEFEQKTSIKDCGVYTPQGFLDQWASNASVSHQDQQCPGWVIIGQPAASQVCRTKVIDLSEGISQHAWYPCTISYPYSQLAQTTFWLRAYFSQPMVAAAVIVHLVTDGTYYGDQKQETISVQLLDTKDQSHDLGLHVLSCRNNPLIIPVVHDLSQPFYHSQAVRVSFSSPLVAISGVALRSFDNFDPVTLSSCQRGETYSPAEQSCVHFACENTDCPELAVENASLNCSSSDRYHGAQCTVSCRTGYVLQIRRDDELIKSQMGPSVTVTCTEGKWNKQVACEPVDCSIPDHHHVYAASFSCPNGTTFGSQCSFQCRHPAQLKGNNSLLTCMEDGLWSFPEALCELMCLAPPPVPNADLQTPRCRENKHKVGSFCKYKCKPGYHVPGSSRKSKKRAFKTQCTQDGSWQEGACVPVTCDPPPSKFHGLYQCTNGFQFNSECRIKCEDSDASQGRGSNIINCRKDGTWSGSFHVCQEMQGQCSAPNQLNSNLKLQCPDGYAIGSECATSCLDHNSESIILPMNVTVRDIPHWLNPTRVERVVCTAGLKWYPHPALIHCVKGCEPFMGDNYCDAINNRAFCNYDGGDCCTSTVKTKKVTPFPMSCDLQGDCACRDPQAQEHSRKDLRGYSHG

[4] = molecular target: T2, recombinant human PAPPA (pregnancy …); assay: cell-based or functional assay; remark: listed apart in the source
[5] = molecular target: T2, recombinant human PAPPA (pregnancy …); assay: cell-based or functional assay; remark: listed apart in the source
[6] = molecular target: T2, recombinant human PAPPA (pregnancy …); assay: SPR, Biacore 8K+, mAb captured on PrismA chip, PAPPA as analyte, 37 C, mean of n=3
Experimental: (§1) Binding of TPP12744 to recombinant human, cynomolgus monkey and rabbit PAPPA was assessed using capture kinetics method on BIACORE 8K+ (Cytiva) SPR instrument. The antibodies, including controls, were captured on PrismA biosensor surface (Cytiva) at injection rate of 10 μl/min. Analytes were injected at injection rate of 30 μl/min over the captured antibodies as a concentration series including eight 2× serial dilutions with the highest concentration of 32 nM. Association phase was 160 seconds, followed by a dissociation phase of 600 seconds. Buffer only (OnM analyte) injection was used to double reference the binding curves. Regeneration of the chip surface between cycles was carried out using 10 mM Glycine pH 1.5. The assay was run at 37° C. in HBS-EP+ buffer with 0.1% BSA to minimize the nonspecific binding of the analytes to the chip surface. TPP12744 was analyzed as three independently prepared replicates.
(§2) The final screening process was conducted using the following criteria. Firstly, antibodies were checked for affinity to human PAPPA (method #4). Only antibodies with low nanomolar affinity for human PAPPA were retained. For one antibody (TPP12744) binding to PAPPA was assessed at 37° C. using the methodology described in Example 1, method #6.

[7] = molecular target: T3, recombinant cynomolgus monkey PAPPA; assay: as above
Experimental: as §1, §2

[8] = molecular target: human PAPPA (Common variant) (human); assay: as above
Experimental: as §1, §2

[9] = molecular target: T1, endogenous human PAPPA natively …; assay: cell-based or functional assay; remark: listed apart in the source
[10] = molecular target: T2, recombinant human PAPPA (pregnancy …); assay: cell-based or functional assay; remark: listed apart in the source
[11] = molecular target: T1, endogenous human PAPPA natively …; assay: cell-based or functional assay; remark: listed apart in the source
recombinant mouse PAPPA [12] = molecular target: T4, recombinant mouse PAPPA (mouse, UniProt Q8R4K8 82-1624, limits assumed); assay: SPR (Biacore 8K+, captured mAb, 37 C); data not shown
T4 construct: also called murine PAPPA; rec; Mouse PAPP-A
T4 sequence (Q8R4K8 82-1624 limits assumed): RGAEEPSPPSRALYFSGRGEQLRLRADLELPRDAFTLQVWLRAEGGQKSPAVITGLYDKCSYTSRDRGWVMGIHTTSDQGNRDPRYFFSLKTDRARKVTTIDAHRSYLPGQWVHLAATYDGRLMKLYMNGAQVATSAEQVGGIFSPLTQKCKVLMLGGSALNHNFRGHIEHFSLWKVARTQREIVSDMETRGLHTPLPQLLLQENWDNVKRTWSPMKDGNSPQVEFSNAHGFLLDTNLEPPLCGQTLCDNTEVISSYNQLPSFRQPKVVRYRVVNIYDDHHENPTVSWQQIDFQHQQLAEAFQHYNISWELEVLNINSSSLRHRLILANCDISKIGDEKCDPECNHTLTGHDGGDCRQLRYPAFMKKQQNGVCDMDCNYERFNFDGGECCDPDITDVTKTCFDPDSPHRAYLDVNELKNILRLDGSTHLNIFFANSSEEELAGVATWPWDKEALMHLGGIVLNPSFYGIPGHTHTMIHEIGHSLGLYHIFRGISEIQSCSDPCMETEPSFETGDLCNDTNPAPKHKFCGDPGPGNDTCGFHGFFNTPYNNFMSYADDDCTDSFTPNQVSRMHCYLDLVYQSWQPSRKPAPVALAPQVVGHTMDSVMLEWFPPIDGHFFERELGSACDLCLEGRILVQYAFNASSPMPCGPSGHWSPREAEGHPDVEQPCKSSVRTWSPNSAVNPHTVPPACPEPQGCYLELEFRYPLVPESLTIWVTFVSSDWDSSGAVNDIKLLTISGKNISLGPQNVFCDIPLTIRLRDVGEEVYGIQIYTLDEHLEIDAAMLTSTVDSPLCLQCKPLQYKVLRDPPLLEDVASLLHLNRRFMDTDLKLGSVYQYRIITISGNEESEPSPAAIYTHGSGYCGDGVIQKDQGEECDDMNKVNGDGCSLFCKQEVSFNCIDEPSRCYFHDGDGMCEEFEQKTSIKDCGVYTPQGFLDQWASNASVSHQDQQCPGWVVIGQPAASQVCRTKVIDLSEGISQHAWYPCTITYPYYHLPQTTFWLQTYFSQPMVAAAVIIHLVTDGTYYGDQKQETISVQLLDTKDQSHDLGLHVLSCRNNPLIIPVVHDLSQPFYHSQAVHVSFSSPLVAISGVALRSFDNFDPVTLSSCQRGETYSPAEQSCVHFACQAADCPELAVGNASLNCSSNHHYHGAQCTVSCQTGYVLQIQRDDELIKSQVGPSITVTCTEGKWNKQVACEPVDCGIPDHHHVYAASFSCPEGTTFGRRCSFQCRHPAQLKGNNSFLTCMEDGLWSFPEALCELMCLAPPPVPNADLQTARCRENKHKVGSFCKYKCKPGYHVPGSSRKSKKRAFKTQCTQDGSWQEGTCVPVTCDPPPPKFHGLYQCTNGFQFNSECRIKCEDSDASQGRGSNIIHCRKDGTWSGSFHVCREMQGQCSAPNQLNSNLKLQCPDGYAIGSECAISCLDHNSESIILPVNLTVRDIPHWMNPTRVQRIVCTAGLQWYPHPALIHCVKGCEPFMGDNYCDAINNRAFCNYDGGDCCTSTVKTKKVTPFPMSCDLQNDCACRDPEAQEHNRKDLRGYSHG

rat PAPPA = rat PAPPA (rat, UniProt A0ABK0LMY4 80-1624); assay: as above
recombinant mouse PAPPA [13] = molecular target: T4, recombinant mouse PAPPA; assay: cell-based or functional assay

T1 sequence (Q13219 82-1627 limits assumed): as the sequence (Q13219 82-1627 limits assumed) above

A549 cells endogenous human PAPP-A pIC50 (A549 pAKT assay) [1]: 9.76 pIC50
rec. Human PAPP-A IGFBP4 pIC50 (G-401 pAKT assay) [2]: 9.36 pIC50
rec. Human PAPP-A IGFBP5 pIC50 (G-401 pAKT assay) [2]: 9.66 pIC50
rec. Cyno PAPP-A IGFBP4 pIC50 (G-401 pAKT assay) [3]: 10 pIC50
PAPP-A cleavage of IGFBP-4 Mean pIC50 [4]: 10 pIC50
PAPP-A cleavage of IGFBP-5 Mean pIC50 [5]: 10.4 pIC50
B1: TPP-12743 (antibody, human IgG1, kappa, V domains shown)
VH: QVQLVQSGAEVKKPGASVKVSCKASGYTFTSYAMHWVRQAPGQRLEWMGWMNAGTGATKSSQKFQGRVTITRDTSASTAYMELSSLRSEDTAVYYCARGPSLETPTTFGMDVWGQGTTVTVSS
VL: DIQMTQSPSSVSASVGDRVTITCRASQGISRWLAWYQQKPGKAPKLLIYAASSLQSGVPSRFSGSGSGTDFTLTISSLQPEDFATYYCQQENAYPFTFGGGTKVEIKR

A549 cells endogenous human PAPP-A pIC50 (A549 pAKT assay) [1]: 8.92 pIC50
rec. Human PAPP-A IGFBP4 pIC50 (G-401 pAKT assay) [2]: 9.18 pIC50
rec. Human PAPP-A IGFBP5 pIC50 (G-401 pAKT assay) [2]: 9.35 pIC50
rec. Cyno PAPP-A IGFBP4 pIC50 (G-401 pAKT assay) [3]: 9.23 pIC50
PAPP-A cleavage of IGFBP-4 Mean pIC50 [4]: 9.53 pIC50
PAPP-A cleavage of IGFBP-5 Mean pIC50 [5]: 9.78 pIC50
B2: TPP-12792 (antibody, human IgG1, kappa, V domains shown)
VH: QLQLQESGPGLVKPSETLSLTCTVSGGSISSSDYYWGWIRQPPGKGLEWIGSIFYSGSTYYNPSLKSRVTISVDTSKNQFSLKLSSVTAADTAVYYCARATTSSSADYWGQGTLVTVSS
VL: B1 VL with L54V, E91G, A93V, Y94P, F96L

A549 cells endogenous human PAPP-A pIC50 (A549 pAKT assay) [1]: 9.49 pIC50
rec. Human PAPP-A IGFBP4 pIC50 (G-401 pAKT assay) [2]: 9.46 pIC50
rec. Human PAPP-A IGFBP5 pIC50 (G-401 pAKT assay) [2]: 9.81 pIC50
rec. Cyno PAPP-A IGFBP4 pIC50 (G-401 pAKT assay) [3]: 9.56 pIC50
Kd [6]: 0.127 nM
koff [6]: 0.000319 s⁻¹
kon [6]: 2.51e+06 M⁻¹ s⁻¹
Kd [7]: 0.161 nM
koff [7]: 0.000433 s⁻¹
kon [7]: 2.68e+06 M⁻¹ s⁻¹
Kd [8]: 0.21 nM
koff [8]: 0.000393 s⁻¹
kon [8]: 1.87e+06 M⁻¹ s⁻¹
PAPP-A cleavage of IGFBP-4 Mean pIC50 [4]: 10 pIC50
EC50, increase of intact IGFBP4 in A549 cell supernatant (ELISA) [9]: 0.8 nM
EC50, increase of intact IGFBP4 in ADPKD patient derived cystic 9-7 cells (ELISA) [9]: 0.4 nM
IC50, decrease of IGFBP4-Ct fragments in 9-7 cells (ELISA) [9]: 0.02 nM
IC50, decrease of IGFBP4-Ct fragments in A549 cell supernatant (ELISA) [9]: 0.8 nM
IC50, decrease of free-IGF-1 in A549 cell supernatant (ELISA) [9]: 0.03 nM
pEC50, increase of intact IGFBP4 in 9-7 cells (ELISA) [9]: 9.41 pEC50
pEC50, increase of intact IGFBP4 in A549 cell supernatant (ELISA) [9]: 9.09 pEC50
pIC50, decrease of IGFBP4-Ct fragments in 9-7 cells (ELISA) [9]: 10.6 pIC50
pIC50, decrease of IGFBP4-Ct fragments in A549 cell supernatant (ELISA) [9]: 9.07 pIC50
pIC50, decrease of free-IGF-1 in A549 cell supernatant (ELISA) [9]: 10.5 pIC50
IC50, PAPPA-mediated cleavage of human IGFBP2, cell-free, Western blot [10]: 1.39 nM
EC50 (read off the curve) [11]: ~1 nM
PAPP-A cleavage of IGFBP-5 Mean pIC50 [5]: 10.7 pIC50
binding result (recombinant mouse PAPPA [12]): no binding
binding result (rat PAPPA): no binding
B3: TPP-12744 (antibody, human IgG1, kappa, V domains shown)
VH: B1 VH with L102M
VL: B1 VL
notes: human IgG1/kappa, Fc-disabled (L235A, G237A)

A549 cells endogenous human PAPP-A pIC50 (A549 pAKT assay) [1]: 9.33 pIC50
rec. Human PAPP-A IGFBP4 pIC50 (G-401 pAKT assay) [2]: 9.22 pIC50
rec. Human PAPP-A IGFBP5 pIC50 (G-401 pAKT assay) [2]: 9.05 pIC50
rec. Cyno PAPP-A IGFBP4 pIC50 (G-401 pAKT assay) [3]: 9.76 pIC50
PAPP-A cleavage of IGFBP-4 Mean pIC50 [4]: 8.96 pIC50
PAPP-A cleavage of IGFBP-5 Mean pIC50 [5]: 9.1 pIC50
B4: TPP-12801 (antibody, human IgG1, kappa, V domains shown)
VH: B2 VH
VL: B1 VL with I29V, E91G, A93V, Y94P, F96L

A549 cells endogenous human PAPP-A pIC50 (A549 pAKT assay) [1]: 9.86 pIC50
rec. Human PAPP-A IGFBP4 pIC50 (G-401 pAKT assay) [2]: 9.59 pIC50
rec. Human PAPP-A IGFBP5 pIC50 (G-401 pAKT assay) [2]: 9.92 pIC50
rec. Cyno PAPP-A IGFBP4 pIC50 (G-401 pAKT assay) [3]: 9.7 pIC50
PAPP-A cleavage of IGFBP-4 Mean pIC50 [4]: 10.2 pIC50
PAPP-A cleavage of IGFBP-5 Mean pIC50 [5]: 11.1 pIC50
B5: TPP-12708 (antibody, human IgG1, kappa, V domains shown)
VH: B1 VH with M51I, S60Y, S61A, Q62R, L102M, F108Y, D111E
VL: B1 VL with A50S, A51T, S56L, A93D

A549 cells endogenous human PAPP-A pIC50 (A549 pAKT assay) [1]: 8.44 pIC50
rec. Human PAPP-A IGFBP4 pIC50 (G-401 pAKT assay) [2]: 8.84 pIC50
rec. Human PAPP-A IGFBP5 pIC50 (G-401 pAKT assay) [2]: 8.81 pIC50
rec. Mouse PAPP-A IGFBP4 pIC50 (G-401 pAKT assay) (recombinant mouse PAPPA [13]): 8.88 pIC50
rec. Cyno PAPP-A IGFBP4 pIC50 (G-401 pAKT assay) [3]: 8.48 pIC50
PAPP-A cleavage of IGFBP-4 Mean pIC50 [4]: 8.8 pIC50
PAPP-A cleavage of IGFBP-5 Mean pIC50 [5]: 8.69 pIC50
B6: TPP-12683 (antibody, human IgG1, kappa, V domains shown)
VH: QLQLQESGPGLVKPSETLSLTCTVSGGSISSSSYNWGWIRQPPGKGLEWIGSISSSGSTYFNPSLKSRVTISVDTSKNQFSLKLSSVTAADTAVYYCARSGYRPSFYAMDAWGQGTTVTVSS
VL: DIQLTQSPSSVSASVGDRVTITCRASQDISYWLAWYQQKPGKAPKLLIYAASSLQSGVPSRFSGSGSGTDFTLTISSLQPEDFATYYCQQAYLLHTFGGGTKVEIKR

A549 cells endogenous human PAPP-A pIC50 (A549 pAKT assay) [1]: 9.7 pIC50
rec. Human PAPP-A IGFBP4 pIC50 (G-401 pAKT assay) [2]: 9.57 pIC50
rec. Human PAPP-A IGFBP5 pIC50 (G-401 pAKT assay) [2]: 9.68 pIC50
rec. Mouse PAPP-A IGFBP4 pIC50 (G-401 pAKT assay) (recombinant mouse PAPPA [13]): 9.51 pIC50
rec. Cyno PAPP-A IGFBP4 pIC50 (G-401 pAKT assay) [3]: 9.46 pIC50
PAPP-A cleavage of IGFBP-4 Mean pIC50 [4]: 10.1 pIC50
EC50 (read off the curve) [11]: ~0.1 nM
B7: TPP-12681 (antibody, human IgG1, kappa, V domains shown)
VH: EVQLVQSGAEVKKPGESLKISCKGSGYSFTSYWTGWVRQAPGKGLEWMGIIYPGGSVARYSPSFQGQVTISADKSISTAYLQWSSLKASDTAVYYCARGPLRSDYPDVWGQGTMVTVSS
VL: EIVMTQSPATLSVSPGERATLSCRASQSVGSYLAWYQQKPGQAPRLLIYRGSTRATGIPARFSGSGSGTEFTLTISSLQSEDFAVYYCQQPYVWPITFGGGTKVEIKR

A549 cells endogenous human PAPP-A pIC50 (A549 pAKT assay) [1]: 9.5 pIC50
rec. Human PAPP-A IGFBP4 pIC50 (G-401 pAKT assay) [2]: 9.45 pIC50
rec. Human PAPP-A IGFBP5 pIC50 (G-401 pAKT assay) [2]: 9.04 pIC50
rec. Mouse PAPP-A IGFBP4 pIC50 (G-401 pAKT assay) (recombinant mouse PAPPA [13]): 9.28 pIC50
rec. Cyno PAPP-A IGFBP4 pIC50 (G-401 pAKT assay) [3]: 9.85 pIC50
PAPP-A cleavage of IGFBP-4 Mean pIC50 [4]: 10.5 pIC50
PAPP-A cleavage of IGFBP-5 Mean pIC50 [5]: 9.1 pIC50
B8: TPP-12821 (antibody, human IgG1, kappa, V domains shown)
VH: B7 VH with Y32D, T34I, V57D, A58T, Q65R, P106V
VL: B7 VL with Y32N, G51A

Reference: patent US20260226194A1 (GlaxoSmithKline, published 2026)
